Where no end group is shown, it is not given here.
T1: PTH/PTHrP receptor (Homo sapiens, UniProt Q03431)
T1 construct: expressed in transfected cells; host or cells: COS-7 cells, transient transfection, vector pcDNA-1
T1 sequence (Q03431 27-593): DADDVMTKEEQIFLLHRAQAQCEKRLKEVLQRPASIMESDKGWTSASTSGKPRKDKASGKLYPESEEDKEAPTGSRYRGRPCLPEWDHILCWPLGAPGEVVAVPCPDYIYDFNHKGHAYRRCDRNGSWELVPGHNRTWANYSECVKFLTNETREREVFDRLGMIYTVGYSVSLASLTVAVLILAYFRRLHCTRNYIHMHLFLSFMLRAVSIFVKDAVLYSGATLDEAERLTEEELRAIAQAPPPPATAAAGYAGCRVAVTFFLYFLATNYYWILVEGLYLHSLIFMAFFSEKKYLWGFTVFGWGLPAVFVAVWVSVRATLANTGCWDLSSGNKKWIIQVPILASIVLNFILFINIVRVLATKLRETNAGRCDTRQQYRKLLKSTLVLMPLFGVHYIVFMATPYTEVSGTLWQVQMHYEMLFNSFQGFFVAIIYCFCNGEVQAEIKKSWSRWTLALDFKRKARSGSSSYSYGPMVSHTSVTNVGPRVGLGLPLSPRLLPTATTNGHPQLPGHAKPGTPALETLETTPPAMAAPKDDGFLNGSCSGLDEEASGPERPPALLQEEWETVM

T2: human PTH/PTHrP receptor (human, UniProt Q03431 27-593)
T2 construct: whole, on cells; Transiently expressed on COS-7 cells
T2 sequence (looked up): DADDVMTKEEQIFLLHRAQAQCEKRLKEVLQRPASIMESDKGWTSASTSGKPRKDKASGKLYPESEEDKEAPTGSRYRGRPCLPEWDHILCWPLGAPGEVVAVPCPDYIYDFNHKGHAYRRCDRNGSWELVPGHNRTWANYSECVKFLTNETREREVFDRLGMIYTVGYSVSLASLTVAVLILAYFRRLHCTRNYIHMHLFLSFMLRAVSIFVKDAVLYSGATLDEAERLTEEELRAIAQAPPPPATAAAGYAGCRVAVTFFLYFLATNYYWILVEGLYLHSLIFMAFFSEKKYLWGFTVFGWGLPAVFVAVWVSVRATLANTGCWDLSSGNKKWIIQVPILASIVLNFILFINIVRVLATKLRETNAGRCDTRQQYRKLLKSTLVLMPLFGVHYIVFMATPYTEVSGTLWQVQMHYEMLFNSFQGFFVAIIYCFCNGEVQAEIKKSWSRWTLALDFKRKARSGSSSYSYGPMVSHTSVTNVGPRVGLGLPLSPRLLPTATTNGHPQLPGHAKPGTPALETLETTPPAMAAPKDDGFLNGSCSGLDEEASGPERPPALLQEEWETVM


Columns and labels:
PTH/PTHrP receptor = molecular target: T1, PTH/PTHrP receptor; experiment: Ligand-induced intracellular cAMP accumulation, COS-7 cells expressing human PTH/PTHrP receptor; assay type: cell-based; conditions: highest level of cAMP attained; basal 4.6 ± 0.2 not subtracted; 1h at room temperature
Experimental: (§1) The cDNAs encoding the human PTH/PTHrP receptor (Schipani, E. et al., Endocrinology 132:2157-2165 (1993)) and the human PTH-2 receptor (Usdin, T. et al., J. Biol. Chem. 270:15455-15458 (1995)) were carried on the expression vectors pcDNA-1 and pcDNAI/Amp (InVitrogen, San Diego, Calif.), respectively. COS-7 cells were cultured and transfected as described previously (Lee, C. et al., Mol. Endocrinol. 9:1269-1278 (1995)). Cells were transfected in 24-well plates using plasmid DNA (200 ng/well) purified by cesium chloride/ethidium bromide gradient centrifugation. Ligand binding and cAMP accumulation assays were performed three days after transfection, by which time the cell density reached 500,000±100,000 cells/well.
(§2) Transfected COS-7 cells were rinsed with […] of binding buffer. 200 μl of IBMX buffer (DMEM containing 2 mM IBMX, 1 mg/ml bovine serum albumin, 35 mM Hepes-NaOH, pH 7.4) and […] of binding buffer or binding buffer containing various amounts of a PTH or PTHrP analog were then added. The plates were incubated for 60 minutes at room temperature. The buffer was then withdrawn and the cells lysed by placing the plates on powdered dry ice and adding 0.5 ml of 50 mM HCl. The acid lysate was diluted 1/30 in dH2O, and an aliquot (5-50 μl) analyzed for cAMP content by radioimmunoassay. […] The cells were then incubated for 30 minutes at room temperature, and the resulting intracellular cAMP was measured by RIA. Data were analyzed using the AssayZap software (Elsevier Science Publishers BV, Cambridge, United Kingdom).

PTH-2 receptor = molecular target: T3, PTH-2 receptor (Homo sapiens, UniProt P49190); experiment: Ligand-induced intracellular cAMP accumulation, COS-7 cells expressing human PTH-2 receptor; assay type: cell-based
T3 construct: expressed in transfected cells; host or cells: COS-7 cells, transient transfection, vector pcDNAI/Amp
Experimental: as §1, §2

human PTH-2 receptor [1] = molecular target: T4, human PTH-2 receptor (human, UniProt P49190 25-550); experiment: cell-based or functional assay
human PTH-2 receptor [2] = molecular target: T4, human PTH-2 receptor; experiment: radioligand competition (tracer 125I-[Nle8,21,Tyr34]rPTH-(1-34)NH2) on transfected COS-7 cells, RT 2 h
Experimental: (§3) Assays were performed for 2 hours at room temperature. Data are the mean (± s.e.m.) of IC$50$ values obtained from the number of experiments indicated (n).
(§4) Binding reactions were performed as described previously. Id. […] Incubations were at room temperature for 2 hours, except for experiments involving Scatchard analysis, which were performed at 4° C. for 6 hours. At the end of the binding reaction, the cells were rinsed 3 times with 0.5 ml of binding buffer, lysed with 0.5 ml of 5M NaOH, and the entire lysate was counted. […] Estimates of the number of receptors/cell derived from these studies assumed a single class of binding sites and a transfection efficiency of 20% (Abou-Samra, A. B. et al., *Proc. Natl. Acad. Sci* (*USA*) 89:2732–2736 (1992)).

human PTH/PTHrP receptor = molecular target: T2, human PTH/PTHrP receptor; experiment: as above
Experimental: as §3, §4

T4 sequence (P49190 25-550): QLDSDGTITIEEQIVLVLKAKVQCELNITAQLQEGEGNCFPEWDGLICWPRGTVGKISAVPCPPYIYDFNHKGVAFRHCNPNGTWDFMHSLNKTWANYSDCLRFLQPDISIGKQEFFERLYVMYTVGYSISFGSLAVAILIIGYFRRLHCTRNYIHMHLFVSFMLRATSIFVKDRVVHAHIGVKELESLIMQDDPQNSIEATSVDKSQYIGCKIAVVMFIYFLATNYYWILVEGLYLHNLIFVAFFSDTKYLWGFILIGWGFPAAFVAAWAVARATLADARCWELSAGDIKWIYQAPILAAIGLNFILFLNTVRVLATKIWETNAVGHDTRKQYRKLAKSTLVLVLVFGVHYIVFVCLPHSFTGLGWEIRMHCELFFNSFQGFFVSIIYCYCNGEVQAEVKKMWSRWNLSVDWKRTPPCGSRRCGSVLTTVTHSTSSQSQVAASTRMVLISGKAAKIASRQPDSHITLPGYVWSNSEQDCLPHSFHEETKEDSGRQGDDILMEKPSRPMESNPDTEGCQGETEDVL
T3 sequence (P49190 25-550): as above

Row | cAMP accumulation EC50 (human PTH-2 receptor [1]) [nM] | cAMP accumulation Maximum (human PTH-2 receptor [1]) [pmoles/well] | IC50 (human PTH/PTHrP receptor) [nM] | Molecule | further results
1 |  |  |  | [Ile^5, Trp^23]PTHrP-(1-36) [[15, W23, Y36]hPTHrP-(1-36)NH2] | cAMP accumulation Maximum, PTH/PTHrP receptor (PTH/PTHrP receptor): 109 ± 10 pmoles/well; cAMP agonist activity in words, PTH-2 receptor (PTH-2 receptor; COS-7 cells): as potent and efficacious as PTH-(1-34); cAMP accumulation Maximum, PTH-2 receptor (PTH-2 receptor; highest level of cAMP attained, basal 5.4 ± 0.3 not subtracted, 1h at room temperature): 65 ± 7 pmoles/well
2 | > 1000 | 5.3 |  | AVSEHQLLHDKGKSLNSMERVEWLRKKLQDVHNY-NH2 [Hybrid-1 hPTHrP-(1-14)/[Y34]hPTH-(15-34)NH2] | 
3 | 0.5 | 65 |  | AVSEIQLLHDKGKSIQDLRRRFWLHHLIAEIHTAEY-NH2 (also called [Ile^5, Trp^23]PTHrP-(1-36); [Ile^5,Trp^32]PTHrP-(1-36) [sic]) [[I5, W23, Y36]hPTHrP-(1-36)NH2] | IC50 (human PTH-2 receptor [2]): 10 nM
4 | 7 | 80 |  | AVSEIQLLHDKGKSIQDLRRRFFLHHLIAEIHTAEY-NH2 [[I5, Y36]hPTHrP-(1-36)NH2] | 
5 | > 1000 | 6.7 |  | AVSEHQLLHDKGKSIQDLRRREWLRKKLQDVHNY-NH2 [Hybrid-4 hPTHrP-(1-21)/[Y34]hPTH-(22-34)NH2] | 
6 | > 1000 | 6.2 |  | AVSEHQLLHDKGKSIQDLERVEWLRKKLQDVHNY-NH2 (also: radioiodinated in direct binding test, Synthetic PTH/PTHrP hybrid ligand; also called radioiodinated hybrid-5 peptide) [Hybrid-5 hPTHrP-(1-18)/[Y34]hPTH-(19-34)NH2] | IC50 (human PTH-2 receptor [2]): 500 nM
7 | > 1000 | 11 | 1000 | AVSEHQLLHDKGKSIQDLRRRFFLRKKLQDVHNY-NH2 (Synthetic PTH/PTHrP hybrid ligand; also called PTHrP-(1-23)/PTH-(24-34)) [Hybrid-3 hPTHrP-(1-23)/[Y34]hPTH-(24-34)NH2] | 
8 |  |  | > 10000 | IQDLRRRFWLHHLIAEIHTAEY-NH2 [[W23, Y36]hPTHrP-(15-36)NH2] | 
9 |  |  | > 10000 | IQDLRRRFFLHHLIAEIHTAEY-NH2 [[Y36]hPTHrP-(15-36)NH2] | 
10 |  |  | > 10000 | IQDLRRREWLHHLIAEIHTAEY-NH2 [[E22, W23, Y36]hPTHrP-(15-36)NH2] | 
11 | 0.6 | 81 |  | SVSEIQLMHNLGKHLNSMERVEWLRKKLQDVHNY-NH2 [[Tyr^34]hPTH-(1-34)NH2] | 
12 | > 1000 | 10 |  | SVSEHQLMHNLGKHLNSMERVEWLRKKLQDVHNY-NH2 [[H5, Y34]hPTH-(1-34)NH2] | 
13 | > 1000 | 7.1 |  | SVSEHQLMHNLGKHLNSMERVEFLRKKLQDVHNY-NH2 [[H5, F23, Y34]hPTH-(1-34)NH2] | 

From US6362163B1, “Parathyroid hormone-related peptide analogs” (The General Hospital Corporation, priority 1996, dated 2002)
